Results from patent US20040110161, “Method for detecting mutations in nucleotide sequences” (published 2004).
Substitutions are numbered along the chain they refer to.

Key:
MutS (Cy5-labeled) [1] = target: T1, MutS (Cy5-labeled) (Escherichia coli, UniProt P23909 P23909:1-853); assay: impedance spectroscopy; 100 mM KCl, 5 mM MgCl2; details: tags: Cy5 nonspecific amine label; also Gene Check unlabeled in EMSA; hairpin, two G/T mismatches
T1 sequence: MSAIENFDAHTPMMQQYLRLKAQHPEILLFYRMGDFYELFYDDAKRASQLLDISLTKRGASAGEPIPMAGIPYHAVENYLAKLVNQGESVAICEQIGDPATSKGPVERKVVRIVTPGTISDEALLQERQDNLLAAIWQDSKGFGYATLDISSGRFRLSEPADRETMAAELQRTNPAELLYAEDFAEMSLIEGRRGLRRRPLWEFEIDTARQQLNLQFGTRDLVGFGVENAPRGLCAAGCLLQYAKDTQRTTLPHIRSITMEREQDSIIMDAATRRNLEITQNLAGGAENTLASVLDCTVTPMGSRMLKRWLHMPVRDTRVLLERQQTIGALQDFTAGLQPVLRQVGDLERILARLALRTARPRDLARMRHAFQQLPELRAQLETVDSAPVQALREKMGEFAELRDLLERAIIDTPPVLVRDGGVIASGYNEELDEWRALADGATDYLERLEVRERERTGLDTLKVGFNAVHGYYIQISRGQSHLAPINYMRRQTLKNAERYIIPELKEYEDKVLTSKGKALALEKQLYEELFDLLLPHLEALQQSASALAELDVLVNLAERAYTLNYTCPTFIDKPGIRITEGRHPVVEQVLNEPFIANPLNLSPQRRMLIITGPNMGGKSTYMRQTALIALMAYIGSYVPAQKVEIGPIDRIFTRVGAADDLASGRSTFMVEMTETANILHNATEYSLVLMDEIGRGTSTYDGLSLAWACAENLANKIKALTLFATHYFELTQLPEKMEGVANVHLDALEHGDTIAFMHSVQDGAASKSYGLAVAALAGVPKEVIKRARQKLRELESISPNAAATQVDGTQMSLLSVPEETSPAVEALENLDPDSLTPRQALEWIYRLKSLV
Experimental: (§1) The individual electrodes were measured in aqueous K₃/K₄Fe(CN)₆ solution (Darmstadt, Germany) (20 mM in 20 mM tris buffer, 100 mM KCl, 5 mM MgCl), in the frequency range from 100 mHz to 1 MHz […], before and after incubating with mutS. The measured values are shown in the Bode diagram. The measurements were carried out, at room temperature, on an IM 6e impedance measuring desk supplied by Zahner Messtechnik.
(§2) The advantage of this method is that it is possible to carry out measurements on the samples without destroying them and without using labels. The mutation-recognizing E. coli mutS protein was used as a model system for the binding of mispairing-recognizing substrates, while Seq. ID Nos. 50 and 51 were used as duplex-forming oligonucleotides. […] The results of the measurement are depicted in FIGS. 29A and 29B.

MutS (Cy5-labeled) [2] = target: T1, MutS (Cy5-labeled); assay: EMSA; 150 mM KCl, 10 mM MgCl2; labeled and unlabeled; details: tags: Cy5 nonspecific amine label; also Gene Check unlabeled in EMSA; label: 5'-biotin (SPR); 5'-32P (EMSA); G/T mismatch
Experimental: Subsequently, the band shift method was used to check whether the Cy™5-conjugated mutS proteins were functionally active, i.e. whether they were still able to bind specifically to base mispairings. For this, heteroduplexes were generated by hybridizing the oligonucleotides […] (Seq. ID No. 6) and “GT” (Seq. ID No. 7), respectively, with the “sense” oligonucleotide (Seq. ID No. 11) by heating for 5 minutes at 95° C. in […] tris-HCl, 100 mM KCl, 5 mM MgCl₂, followed by cooling slowly down to room temperature. […] Using T₄ polynucleotide kinase (New England Biolabs, Frankfurt), 10 pmol each of the two heteroduplexes which wer produced using the “AT” and “GT” oligonucleotides were radioactively labeled, in accordance with the manufacturer's instructions, with 150 μCi of ³²P-ATP at their 5′ ends and purified through Sephadex G50 gel filtration columns (Pharmacia, Uppsala, Sweden) in accordance with the manufacturer's instructions. […] After the run, the gels were dried and analyzed by autoradiography (FIG. 6).

MutS (Cy5-labeled) [3] = target: T1, MutS (Cy5-labeled); assay: hydrogel chip fluorescence; details: tags: Cy5 nonspecific amine label, also Gene Check unlabeled in EMSA
Text: (§3) The biotinylated “sense” oligonucleotide (Seq. ID No. 10) was electronically addressed to the individual positions on the hydrogel chip, for 60 sec. and at a voltage of 2.1 V, in the Nanogen workstation loading appliance. The hybridization with the second-strand AT (Seq. ID No. 12), GT (Seq. ID No. 13), AA (Seq. ID No. 14), AG (Seq. ID No. 15), CA (Seq. ID No. 16), CC (Seq. ID No. 17), CT (Seq. ID No. 18), GG (Seq. ID No. 19), TT (Seq. ID No. 20), ins+1T (Seq. ID No. 21), ins+2T (Seq. ID No. 22) and ins+3T (Seq. ID No. 23) oligonucleotides was carried out for 120 sec. at 2.1 V. The loading scheme is shown in Table 45; the name of each second-strand oligonucleotide indicates the mispairing or insertion (“ins”) which is formed on hybridization.
(§4) After the loading, the chips were taken out of the loading appliance, filled with 1 ml of blocking buffer and incubated at room temperature for 60 min in order to saturate nonspecific protein-binding sites. The binding of E.coli mutS (ChipA), MBP-MutS (ChipB), Thermus aquaticus mutS (ChipC) and Thermus thermophilus mutS (Chip D) to the resulting DNA double strands was then tested. For this, the chips were incubated for 60 min with in each case 2-3 μg of the Cy™5-labeled mutS proteins in 100 μl of incubation buffer. The chips which were incubated with E.coli mutS and MBP mutS were incubated at room temperature while the chips which were incubated with Thermus aquaticus mutS and Thermus thermophilus mutS were incubated at 37° C. After this incubation, the chips were washed by hand with 10 ml of incubation buffer and inserted into the Nanogen reader. In the reader, the chips were washed, at a temperature of 37° C. (E.coli mutS and MBP-mutS) or 50° C. (Thermus aquaticus mutS and Thermus thermophilus mutS), 70-80× with in each case 0.25 ml of washing buffer.
(§5) Finally, the Cy™3 and Cy™5 fluorescence intensities at the individual positions on the chips were measured in the Nanogen reader using the following instrument settings: high sensitivity (“high gain”) in the case of Cy™5, low sensitivity (“low gain”) in the case of CY™3; 256 μs integration time. Care was taken to ensure that the Cy™3 fluorescence intensity was distributed homogeneously over the chip surface.

[4] = target: T2, MBP-MutS fusion (Cy5-labeled) (Escherichia coli, UniProt P23909 P23909:1-853); assay: hydrogel chip fluorescence; details: label: 5'-biotin, 5'-Cy3
T2 chain: T1 sequence
Text: as §3, §4, §5

MutS (Cy5-labeled) [5] = target: T1, MutS (Cy5-labeled); assay: impedance spectroscopy; no or only very slight binding; details: tags: Cy5 nonspecific amine label; also Gene Check unlabeled in EMSA; hairpin
Experimental: as §1, §2

## ATTCGATCGGGGCGGGGCGAGCTTTTTGCTCGCCTTGCCCCGATCGAAT (structured_DNA, 5'-SH, amino modifier X in loop) [hairpin with two GT mispairings]
MutS (Cy5-labeled) [1]
  binding result: binds

B1: sense(36)/GT (dsDNA)
DNA 1: AAGCATACGGAAGTTAAAGTGCGGATCATCTCTAGC
DNA 2: TGGCTAGAGATGATCCGCGCTTTAACTTCCGTATGC
MutS (Cy5-labeled) [2]
  binding result: binds

B2: sense/GG mismatch (dsDNA)
DNA 1: AAGCATACGGAAGTTAAAGTGCGGATCATCTCTAGCCA
DNA 2: B1 DNA 2 with G19A, C20G
MutS (Cy5-labeled) [3]; label: 5'-biotin, 5'-Cy3, G/G mismatch
  binding signal: 18.4 fold vs AT
[4]; G/G mismatch
  binding signal: 6.5 fold vs AT

B3: sense/CC mismatch (dsDNA)
DNA 1: B2 DNA 1
DNA 2: B1 DNA 2 with G17C, G19A
MutS (Cy5-labeled) [3]; label: 5'-biotin, 5'-Cy3, C/C mismatch
  binding signal: 1.37 fold vs AT

B4: sense/AT perfect duplex (dsDNA)
DNA 1: B2 DNA 1
DNA 2: B1 DNA 2 with G19A
MutS (Cy5-labeled) [3]; label: 5'-biotin sense, 5'-Cy3 AT
  binding signal: 1 fold vs AT

B5: sense/CT mismatch (dsDNA)
DNA 1: B2 DNA 1
DNA 2: B1 DNA 2 with G19C
MutS (Cy5-labeled) [3]; label: 5'-biotin, 5'-Cy3, C/T mismatch
  binding signal: 6.24 fold vs AT
[4]; C/T mismatch
  binding signal: 3.56 fold vs AT

B6: sense/AC mismatch (dsDNA)
DNA 1: B2 DNA 1
DNA 2: B1 DNA 2 with G19A, T21C
MutS (Cy5-labeled) [3]; label: 5'-biotin, 5'-Cy3, A/C mismatch
  binding signal: 5.73 fold vs AT
[4]; A/C mismatch
  binding signal: 2.53 fold vs AT

B7: sense/TT mismatch (dsDNA)
DNA 1: B2 DNA 1
DNA 2: B1 DNA 2 with G19T
MutS (Cy5-labeled) [3]; label: 5'-biotin, 5'-Cy3, T/T mismatch
  binding signal: 1.82 fold vs AT
[4]; T/T mismatch
  binding signal: 1.94 fold vs AT

B8: sense/GT mismatch (dsDNA)
DNA 1: B2 DNA 1
DNA 2: B1 DNA 2
MutS (Cy5-labeled) [3]; label: 5'-biotin, 5'-Cy3, G/T mismatch
  binding signal: 29 fold vs AT
[4]; G/T mismatch
  binding signal: 22.3 fold vs AT

B9: sense/AG mismatch (dsDNA)
DNA 1: B2 DNA 1
DNA 2: B1 DNA 2 with G19A, C20A
MutS (Cy5-labeled) [3]; label: 5'-biotin, 5'-Cy3, A/G mismatch
  binding signal: 3.34 fold vs AT
[4]; A/G mismatch
  binding signal: 2.72 fold vs AT

B10: sense/AA mismatch (dsDNA)
DNA 1: B2 DNA 1
DNA 2: B1 DNA 2 with G19A, T21A
MutS (Cy5-labeled) [3]; label: 5'-biotin, 5'-Cy3, A/A mismatch
  binding signal: 13 fold vs AT
[4]; A/A mismatch
  binding signal: 4.03 fold vs AT

## ATTCGATCGGGGCGGGGCGAGCTTTTGCTCGCCCCGCCCCGATCGAAT (structured_DNA, 5'-SH, amino modifier X in loop) [hairpin perfectly paired]
MutS (Cy5-labeled) [5]
  binding result: no binding
